Experimental data taken from article PMC5218472 (PLoS Biology, 2017).

How the values were obtained:
ADAM17 = experiment: PMA-induced ADAM17-mediated IL-6R ectodomain shedding in transiently transfected HEK293 cells, sIL-6R ELISA; format: cell-based, human; details: for increase of sIL-6R after PMA (unstimulated = 1), mean: 100 nM PMA 2 h vs DMSO
Source text: Fig 4 Mutation of Val-356 is sufficient to block proteolysis of the IL-6R and the Asp358Ala variant. (A) Amino-acid residues from Asp-340 to Ala-370 of the human IL-6R. The identified cleavage site between Pro-355 (P1) and Val-356 (P1′) is indicated. (B) Overview of the six different IL-6R cleavage site mutants. Mutations are colored in either green or blue; the amino-acid residues of the wild-type cleavage site are shown in red. (C) HEK293 cells were transiently transfected with expression plasmids encoding the wild-type IL-6R (PV) or the double mutants (IE, DG) as indicated. Cells were either treated with 100 nM PMA for 2 h or DMSO as vehicle control. sIL-6R was precipitated from the supernatant with concanavalin A-covered sepharose beads, and the cells were lysed. Both were analyzed via western blot, and β-actin served as the loading control. One out of three experiments with similar outcomes is shown. (D, E) The experiment was performed as described under (C), but sIL-6R generation was analyzed via ELISA. In (D), the amount of sIL-6R generated after PMA stimulation of the wild-type IL-6R (PV) was set to 100%, and all other values were calculated accordingly. In (E), the amount of sIL-6R without stimulation was considered as constitutive shedding and set to 1, and the increase of sIL-6R was calculated. Data shown are the mean ± SD from at least three independent experiments (*p < 0.05, ns = no significant difference). (F–H) HEK293 cells were transiently transfected with expression plasmids encoding the wild-type IL-6R (PV) or the single mutants (DV, IV, PE, PG) as indicated. The experiments were performed as described in (C) to (E). (I) Overview of the four different IL-6R cleavage site mutants of the IL-6R Asp358Ala variant. Mutations are colored in either green or blue, the amino-acid residues of the wild-type cleavage site are shown in red, and the Asp358Ala single nucleotide polymorphism (SNP) is colored in orange. (J) ADAM17-mediated proteolysis of the IL-6R variants depicted in (I) were analyzed as described in (D). (K–M) Equal numbers of Ba/F3-gp130 cells were incubated for 48 h with increasing amounts (0–100 ng/ml) of either IL-6 or Hyper-IL-6. The stably transduced IL-6R variant is indicated above the diagram. One representative experiment out of three performed is shown (mean ± SD, biological triplicates).
(§1) Analysis of IL-6R ectodomain shedding in transiently transfected HEK293 cells or stably transduced Ba/F3-gp130 cell lines by ADAM10 and ADAM17 has been described elsewhere. Analysis of IL-6R proteolysis by CG has been described previously.
(§2) The sandwich ELISA, which detects sIL-6R as well as ds-sIL-6R (4-11/Baf227 antibodies) and can be used to quantify total sIL-6R serum levels, was described previously. To specifically detect ds-sIL-6R (either recombinant or in human serum), a similar approach was used (ds6R/Baf227). Both sandwich ELISAs were performed with streptavidin-horseradish peroxidase (R&D Systems, Minneapolis, Minnesota, US) and the peroxidase substrate BM blue POD (Roche, Mannheim, Germany). The enzymatic reaction was stopped by addition of 1.8 M sulfuric acid, and the absorbance read at 450 nm on a Tecan rainbow reader (Tecan, Crailsheim, Germany).

ADAM10 = experiment: Ionomycin-induced ADAM10-mediated IL-6R ectodomain shedding in transiently transfected HEK293 cells, sIL-6R ELISA; format: cell-based, human; details: for sIL-6R shedding, Figure S4E, mean / sIL-6R shedding, Figure S4B, mean: normalised to PV Iono = 100; for sIL-6R shedding, Figure S4G, mean: normalised to PVQD Iono = 100
Source text: as §1, §2
Supplementary file pbio.2000080.s004.tif: S4 Fig Mutation of Val-356 is sufficient to block ADAM10-mediated proteolysis of the IL-6R and the Asp358Ala variant. (A) HEK293 cells were transiently transfected with Expression plasmids encoding the wildtype IL-6R (PV) or the double mutants (IE, DG) as indicated. Cells were either treated with 1 μM ionomycin for 1 h or DMSO as vehicle control. sIL-6R was precipitated from the supernatant with concanavalin A-covered Sepharose beads, and cells were lysed. Both were analyzed via Western blot, and β-actin served as loading control. One out of three experiments with similar outcome is shown. (B, C) The experiment was performed as described under (A), but sIL-6R generation was analyzed via ELISA. In (B), the amount of sIL-6R generated after ionomycin-stimulation of the wildtype IL-6R (PV) was set to 100%, and all other values were calculated accordingly. In (C), the amount of sIL-6R without stimulation was considered as constitutive shedding and set to 1 and the increase of sIL-6R was calculated. Data shown are the mean ± SD from at least three independent experiments (*p<0.05, ns = no significant difference). (D-F) HEK293 cells were transiently transfected with expression plasmids encoding the wildtype IL-6R (PV) or the single mutants (DV, IV, PE, PG) as indicated. The experiments were performed as described in (A) to (C). (G) ADAM10-mediated proteolysis of the IL-6R variants depicted in Fig 4I was analyzed as described in (B). (H) Equal numbers of Ba/F3-gp130-IL-6R_DG cells were incubated for 48 h with increasing amounts (0–100 ng/ml) of either IL-6 or Hyper-IL-6. One representative experiment out of three performed is shown (mean ± SD, biological triplicates). (TIF) Click here for additional data file.

B1: PV: wild-type human IL-6R, cleavage site Pro-355/Val-356 (protein)
chain: LAPRRCPAQEVARGVLTSLPGDSVTLTCPGVEPEDNATVHWVLRKPAAGSHPSRWAGMGRRLLLRSVQLHDSGNYSCYRAGRPAGTVHLLVDVPPEEPQLSCFRKSPLSNVVCEWGPRSTPSLTTKAVLLVRKFQNSPAEDFQEPCQYSQESQKFSCQLAVPEGDSSFYIVSMCVASSVGSKFSKTQTFQGCGILQPDPPANITVTAVARNPRWLSVTWQDPHSWNSSFYRLRFELRYRAERSKTFTTWMVKDLQHHCVIHDAWSGLRHVVQLRAQEEFGQGEWSEWSPEAMGTPWTESRSPPAENEVSTPMQALTTNKDDDNILFRDSANATSLPVQDSSSVPLPTFLVAGGSLAFGTLLCIAIVLRFKKTWKLRALKEGKTSMHPPYSLGQLVPERPRPTPVLVPLISPPVSPSSLGSDNTSSHNRPDARDPRSPYDISNTDYFFPR
modifications: N-linked glycans at Asn-55, Asn-93, Asn-221, Asn-245 and Asn-350, O-linked glycan at Thr-352 (mapped on sIL-6R shed from transfected HEK293 cells)
increase in sIL-6R generation compared to vehicle-treated cells (ADAM17; 100 nM PMA 2 h, HEK293, ELISA, mean ± SD): 3.6 ± 1.9 fold | sIL-6R in supernatant (PMA-stimulated PV = 100%), mean (ADAM17; Fig 4D, 100 nM PMA, 2 h, mean of at least 3 independent experiments): 100% | sIL-6R in supernatant (PMA-stimulated PV = 100%), mean (ADAM17; Fig 4D, DMSO vehicle, 2 h (constitutive shedding), mean of at least 3 independent experiments): 34.05% | increase of sIL-6R after PMA (unstimulated = 1), mean (ADAM17; Fig 4E, mean): 3.59 fold | sIL-6R in supernatant (PMA-stimulated PV = 100%), mean (ADAM17; Fig 4G, 100 nM PMA, 2 h, mean of 3): 100% | sIL-6R in supernatant (PMA-stimulated PV = 100%), mean (ADAM17; Fig 4G, DMSO, 2 h, mean of 3): 36.7867% | increase of sIL-6R after PMA (unstimulated = 1), mean (ADAM17; Fig 4H, mean of 3): 2.73 fold | ratio of sIL-6R Iono / DMSO, Figure S4F, mean (ADAM10; mean of n = 3): 3.48 | ratio of sIL-6R Iono / DMSO, Figure S4C, mean (ADAM10; mean of replicates): 2.623 | sIL-6R shedding, Figure S4E, mean (ADAM10; treatment DMSO, mean of n = 3): 35.7033 | sIL-6R shedding, Figure S4B, mean (ADAM10; treatment DMSO, mean of replicates): 40.5833 | sIL-6R shedding, Figure S4G, mean (ADAM10; treatment DMSO, mean of n = 3): 48.1333 | sIL-6R shedding, Figure S4E, mean (ADAM10; treatment Iono, mean of n = 3): 100 | sIL-6R shedding, Figure S4B, mean (ADAM10; treatment Iono, mean of replicates): 100 | sIL-6R shedding, Figure S4G, mean (ADAM10; treatment Iono, mean of n = 3): 100
